{"source": "paper PMC4990970", "about": "(Scientific Reports, 2016)", "binders": {"B1": {"name": "AtBAG5-IQR (AtBAG5-long with Ile57, Gln58 and Arg62 substituted with alanine) (domain or fragment)", "chain": "NATAAAARAASGYASYRIRNLYKKISSINREANRVQSIIQRQETVDAIRSDEKERLRMNETLMALLLKLDSVPGLDPTIREARRKVSRKIVGMQEILDSISETKD", "notes": "AtBAG5, Arabidopsis thaliana, residues 49-153 (AtBAG5-long) with three conserved residues of the IQ motif changed to alanine; also called IQ motif mutant; AtBAG5-IQR mutant; source: Escherichia coli, purified using chromatography techniques"}}, "key": {"Calmodulin (CaM) [1]": {"target": "T1, Calmodulin (CaM) (UniProt P0DP23 1-149)", "T1 construct": "Calmodulin, full length; apo-CaM (5 mM EGTA) and holo-CaM (10 mM CaCl2) are the same protein; the assays tell them apart; Se-Met-substituted apo-CaM was used for anomalous signals in the structure determination; also called apo-CaM; Ca2+-free CaM; source: Escherichia coli, purified using chromatography techniques", "assay": "ITC; iTC200, room temperature, 20 mM Tris-HCl pH 7.5, 500 mM NaCl, 5 mM EGTA (apo-CaM, absence of calcium); 0.05-0.1 mM in the cell, 0.5-1.0 mM in the syringe", "settings": "both partners purified"}, "Calmodulin (CaM) [2]": {"target": "T1, Calmodulin (CaM)", "assay": "ITC; iTC200, room temperature, 20 mM Tris-HCl pH 7.5, 500 mM NaCl, 10 mM CaCl2 (holo-CaM, presence of calcium); 0.05-0.1 mM in the cell, 0.5-1.0 mM in the syringe", "settings": "both partners purified"}}}
{"binder": "B1", "values": [{"measurement": "Kd", "setting": "Calmodulin (CaM) [1]", "result": 1160, "unit": "µM"}, {"measurement": "Kd", "setting": "Calmodulin (CaM) [2]", "result": 7.14, "unit": "µM"}]}
